Measurements from paper PMC3115443.

Target: 326^βB (TP0326 β-barrel construct with a C-terminal His-tag) (Treponema pallidum subspecies pallidum (Nichols-Farmington strain))
Assay: native gel or EMSA

Q: With “326^βB (TP0326 β-barrel construct with a C-terminal His-tag) (domain or fragment)” as the substance, how does the stoichiometry N read?
A: Its stoichiometry N is 3.
